Series [1] addresses Yersinia intermedia phytase APPAmut4 (SEQ ID NO: 1) mutant A147C/Y268C (Yersinia intermedia, UniProt Q000T0, A170C/A346L/M382L/V109D/Y291C/Y74E). Description: Determination of dynamic parameters on sodium phytate: mutant A147C/Y268C. The format is biochemical. The following applies: 37° C., pH 5.5, sodium phytate 0.05 to 1.00 mM.
Series [2] concerns the target Yersinia intermedia phytase APPAmut4 (SEQ ID NO: 1) mutant G65R (Yersinia intermedia, UniProt Q000T0, A346L/G88R/M382L/V109D/Y74E). Description: Determination of dynamic parameters on sodium phytate: mutant G65R. Type of series: biochemical. The following applies: 37° C., pH 5.5, sodium phytate 0.05 to 1.00 mM.
The target in series [3] is Yersinia intermedia phytase APPAmut4 (parent), SEQ ID NO: 1 (Yersinia intermedia, UniProt Q000T0, A346L/M382L/V109D/Y74E). The series is described as follows: Determination of dynamic parameters on sodium phytate: phytase APPAmut4. The following applies: 37° C., pH 5.5, sodium phytate 0.05 to 1.00 mM. Type of series: biochemical.
In series [4] the test system is O=P(O)(O)O[C@H]1[C@H](OP(=O)(O)O)[C@@H](OP(=O)(O)O)[C@H](OP(=O)(O)O)[C@@H](OP(=O)(O)O)[C@H]1OP(=O)(O)O. Description: Determination of dynamic parameters on sodium phytate: mutant A57C/A103C. Type of series: biochemical, Yersinia intermedia. As to conditions: other: A57C/A103C, 37° C., pH 5.5, sodium phytate 0.05 to 1.00 mM.
For series [5] the test system is unchanged. Description: Determination of dynamic parameters on sodium phytate: mutant A147C/Y268C. The format is biochemical, Yersinia intermedia. The following applies: other: A147C/Y268C, 37° C., pH 5.5, sodium phytate 0.05 to 1.00 mM.
The test system is the same in series [6]. The series is described as follows: Determination of dynamic parameters on sodium phytate: mutant E282L. Type of series: biochemical, Yersinia intermedia. The following applies: other: E282L, 37° C., pH 5.5, sodium phytate 0.05 to 1.00 mM.
The test system is the same in series [7]. Description: Determination of dynamic parameters on sodium phytate: mutant G65R. Type of series: biochemical, Yersinia intermedia. As to conditions: other: G65R, 37° C., pH 5.5, sodium phytate 0.05 to 1.00 mM.
Series [8] has the same test system. Description: Determination of dynamic parameters on sodium phytate: mutant G101C/V116C. The format is biochemical, Yersinia intermedia. As to conditions: other: G101C/V116C, 37° C., pH 5.5, sodium phytate 0.05 to 1.00 mM.
The test system is the same in series [9]. Description: Determination of dynamic parameters on sodium phytate: mutant G365D. The format is biochemical, Yersinia intermedia. As to conditions: other: G365D, 37° C., pH 5.5, sodium phytate 0.05 to 1.00 mM.
Series [10] shares this test system. The series is described as follows: Determination of dynamic parameters on sodium phytate: mutant R271C/E413C. The format is biochemical, Yersinia intermedia. As to conditions: other: R271C/E413C, 37° C., pH 5.5, sodium phytate 0.05 to 1.00 mM.
Series [11] has the same test system. Description: Determination of dynamic parameters on sodium phytate: mutant R353C/L401C. Type of series: biochemical, Yersinia intermedia. As to conditions: other: R353C/L401C, 37° C., pH 5.5, sodium phytate 0.05 to 1.00 mM.
The test system is the same in series [12]. The series is described as follows: Determination of dynamic parameters on sodium phytate: phytase APPAmut4. Type of series: biochemical, Yersinia intermedia. The following applies: other: APPAmut4, 37° C., pH 5.5, sodium phytate 0.05 to 1.00 mM.

By kcat/Km is commonly meant the second-order rate constant that governs catalysis at low substrate concentration. Take `O=P(O)(O)O[C@H]1[C@H](OP(=O)(O)O)[C@@H](OP(=O)(O)O)[C@H](OP(=O)(O)O)[C@@H](OP(=O)(O)O)[C@H]1OP(=O)(O)O` [sodium phytate]: the kcat/Km in series [1] turned out to be 1.0823e+07 M⁻¹ s⁻¹; in [2], 9.009e+06 M⁻¹ s⁻¹; in series [3], 1.2322e+07 M⁻¹ s⁻¹.

A word on the Km: it is the concentration of substrate that gives half-maximal velocity. A word on the Vmax: it is the rate approached at saturating substrate. A word on the kcat: it is the number of substrate molecules converted per active site and unit of time at saturation. For “Yersinia intermedia phytase APPAmut4 (SEQ ID NO: 1) mutant A57C/A103C (Yersinia intermedia; A126C/A346L/A80C/M382L/V109D/Y74E)”, in series [4], the Km was found to be 180 ± 30 µM, the Vmax was found to be 2840 µmol/min/mg, the kcat was 2160 ± 130 s⁻¹ and the kcat/Km is 1.21e+07 ± 1.37e+06 M⁻¹ s⁻¹.

Regarding “Yersinia intermedia phytase APPAmut4 (SEQ ID NO: 1) mutant A147C/Y268C (Yersinia intermedia; A170C/A346L/M382L/V109D/Y291C/Y74E)”, in [5], the Km was determined as 220 ± 30 µM, the Vmax is 3140 µmol/min/mg, the kcat was determined as 2380 ± 124 s⁻¹ and the kcat/Km came to 1.08e+07 ± 1.02e+06 M⁻¹ s⁻¹.

For the molecule “Yersinia intermedia phytase APPAmut4 (SEQ ID NO: 1) mutant E282L (Yersinia intermedia; A346L/E305L/M382L/V109D/Y74E)”, in series [6], the Km stood at 150 ± 20 µM, the maximum rate (Vmax) came out at 2300 µmol/min/mg, the kcat was 1750 ± 67 s⁻¹ and the kcat/Km worked out at 1.13e+07 ± 967000 M⁻¹ s⁻¹.

As for “Yersinia intermedia phytase APPAmut4 (SEQ ID NO: 1) mutant G65R (Yersinia intermedia; A346L/G88R/M382L/V109D/Y74E)”, in series [7], the Km is 220 ± 40 µM, the Vmax was 2630 µmol/min/mg, the kcat was 2000 ± 77 s⁻¹ and the kcat/Km amounted to 9.01e+06 ± 992000 M⁻¹ s⁻¹.

With “Yersinia intermedia phytase APPAmut4 (SEQ ID NO: 1) mutant G101C/V116C (Yersinia intermedia; A346L/G124C/M382L/V109D/V139C/Y74E)”, in [8], the Km is 200 ± 30 µM, the Vmax stood at 2930 µmol/min/mg, the turnover number (kcat) stood at 2230 ± 119 s⁻¹ and the catalytic efficiency (kcat/Km) came to 1.11e+07 ± 1.13e+06 M⁻¹ s⁻¹.

For “Yersinia intermedia phytase APPAmut4 (SEQ ID NO: 1) mutant G365D (Yersinia intermedia; A346L/G388D/M382L/V109D/Y74E)”, in series [9], the Km was 140 ± 20 µM, the Vmax stood at 2410 µmol/min/mg, the kcat turned out to be 1830 ± 58 s⁻¹ and the kcat/Km amounted to 1.32e+07 ± 1.15e+06 M⁻¹ s⁻¹.

With “Yersinia intermedia phytase APPAmut4 (SEQ ID NO: 1) mutant R271C/E413C (Yersinia intermedia; A346L/E436C/M382L/R294C/V109D/Y74E)”, in series [10], the Michaelis-Menten constant (Km) worked out at 180 ± 30 µM, the Vmax came to 3180 µmol/min/mg, the kcat came to 2410 ± 154 s⁻¹ and the kcat/Km was 1.34e+07 ± 1.54e+06 M⁻¹ s⁻¹.

In the case of “Yersinia intermedia phytase APPAmut4 (SEQ ID NO: 1) mutant R353C/L401C (Yersinia intermedia; A346L/L424C/M382L/R376C/V109D/Y74E)”, in series [11], the Km amounted to 200 ± 20 µM, the Vmax came to 3400 µmol/min/mg, the kcat is 2580 ± 124 s⁻¹ and the specificity constant (kcat/Km) is 1.29e+07 ± 955000 M⁻¹ s⁻¹.

As for “Yersinia intermedia phytase APPAmut4 (parent), SEQ ID NO: 1 (Yersinia intermedia; A346L/M382L/V109D/Y74E)”, in series [12], the Km stood at 140 ± 30 µM, the Vmax was determined as 2270 µmol/min/mg, the kcat was 1720 ± 72 s⁻¹ and the kcat/Km worked out at 1.23e+07 ± 1.58e+06 M⁻¹ s⁻¹.
